The values that follow come from WO1994018227A2.

The target of this test is natural affinity purified heavy chain class I K d molecules. In words: binding inhibition experiment with radiolabelled ligands.

Regarding Recombinant murine β2-microglobulin, the affinity, fold lower than the human β2-microglobulin was 5 times lower.
